B1: ompT (dsDNA)
DNA 1: TTTTATGGTATTTGA
DNA 2: TCAAATACCATAAAA
B2: ctx (dsDNA)
DNA 1: GATTTTTGATTTT
DNA 2: AAAATCAAAAATC
B3: toxT (dsDNA)
DNA 1: CTCAAAAAACATAAAA
DNA 2: TTTTATGTTTTTTGAG
B4: ompU (dsDNA)
DNA 1: ATTTATATCATTTTA
DNA 2: TAAAATGATATAAAT

Experiments:
Details in all cases: protein: recombinant; tags: N-terminal His6; chain copies: 2; none in NMR; blunt
[1] = biological target: T1, cToxR_1-134 (Vibrio cholerae, UniProt P15795 1-134); experiment: fluorescence anisotropy
[2] = biological target: T1, cToxR_1-134; experiment: NMR CSP titration; mean as printed; T111 14.21 ± 0.31, L99 14.78 ± 6.62
[3] = biological target: T1, cToxR_1-134; experiment: NMR CSP titration; mean as printed; T111 28.26 ± 5.73, L99 27.88 ± 3.01
[4] = biological target: T1, cToxR_1-134; experiment: NMR CSP titration; mean as printed; T111 0.15 ± 4e-9, L99 0.63 ± 1e-8
[5] = biological target: T1, cToxR_1-134; experiment: NMR CSP titration; mean as printed; T111 6.82 ± 1.07, L99 5.16 ± 0.46

T1 sequence (P15795 1-134): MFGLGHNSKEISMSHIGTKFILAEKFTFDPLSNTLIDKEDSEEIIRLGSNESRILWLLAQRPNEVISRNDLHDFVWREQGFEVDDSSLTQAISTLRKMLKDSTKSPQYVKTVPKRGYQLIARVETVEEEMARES

Binder	Kd [1] [µM]	Kd [2] [µM]	Kd [3] [µM]	Kd [4] [µM]	Kd [5] [µM]
B1	12.8 ± 1.27	14.5			
B2	9.71 ± 0.84		28.1		
B3	0.66 ± 0.1			0.35	
B4	5.49 ± 0.91				5.99
